Reference: the nanobody polyreactivity screen of Harvey et al. (2022)

Assay: yeast display, Sf9 membrane polyspecificity reagent, FACS + sequencing; frameworks hold sequencing errors
How it was run: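 Galactose-induced (36–48 hours) yeast carrying a synthetic nanobody display library were exposed to 10% biotinylated, detergent-solubilized Sf9 membrane reagent at 4 °C for 1 hour. FACS followed streptavidin microbead enrichment, using low and high (top ~1%) gates for expression (anti-HA) and reagent binding (streptavidin). Colony PCR, MiSeq 2 × 250 sequencing and CDR-length filtering followed. Labels for polyreactivity reflect the gate of origin.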

| Sequence | polyreactivity (PSR sort gate) |
| --- | --- |
| QVQLVESGGGLVQEGGSLRLSCAASGLISQRNVMGWYRQAPGKERELVARISTSSSGTYYADSVKGRFTISRDNAKNTFYLHMYSLKPEYTAVYYCAVRYRGGAARQIYDYWGQGTQVTVSS | high polyreactivity |
| QVQLVESGGGLVQEGGSLRLSCAASGRIFSRYVMGWYRQAPGKERELVAAITGSGGSTYYADSVKGRFTISRDNAKNTVYLQMNSLKPEDTADYYCAVVSRANSYRYNYWGQGTQVTVSS | high polyreactivity |
| QVQLVESGGGLVQEGGSLRLSCAASGRIYARNAMGWYRQAPGKERDLVAAIRNSDGSTYYADSVNGRFTISRDNAKNSVYLQMNSLKPEDTAVYYCNTVPYPAYLARMDYWGQGTQVTVSS | high polyreactivity |
| QVQLVESGGGLVQEGGSLRLSCAASGRTFAIYTMGCYRQAPGKERELVATNSGSAGNTYYADSVKGRYTISRDNAKNTVYLQMNSLIPEDTAVYYCAARQRKSRQIVLLDYWGQGTQVTVSS | high polyreactivity |
| QVQLVESGGGLVQEGGSLRLSCAASGRTFWAYAMGWYRQAPGKERELVAAITTSGGSTNYADSVKGRFTISRDNAKNTVYLQMNSLKPEDTADYYCNADPTYHVVNGVAYWGQGTQVTVSS | low polyreactivity |
| QVQLVESGGGLVQEGGSLRLSCAASGRTFYQYAMGWYRQAPGKERELVAVINGGGSTNYADSVKGRFTISRDNAKNTVYLQMNSLIPEDTAVYYCNADDVFDFDYWGQGTQVTVSS | low polyreactivity |
| QVQLVESGGGLVQEGGSLRLSCAASGRTLHKNVMGWYRQAPGKERELVAAINTGGRTYYADSVKGRFTISRDNAKHTVYLQMNSLKPEDTAVYYCAKEGHVNPRPTVGGDYWGHGTQVTVSS | low polyreactivity |
| QVQLVESGGGLVQEGGSLRLSCAASGSIFIANAMGWYRQAPGKERELVARITRGGRTNYADSVKGRFTISRDNAKNTVYLQMNSLKPEDTAVYYCAAVYYVGFPHKYDYWGQGTQVTVSS | low polyreactivity |
| QVQLVESGGGLVQEGGSLRLSCAASGSIFLQYAMGWYRQAPGKERELVAGISLRGCSTYYADSVKGRFTISRDNAKNTVYVQLNSLKPEDTAVYYCAADVIVTVETHTSGPSFTEYDYWGQGTQVTVSS | low polyreactivity |
| QVQLVESGGGLVQEGGSLRLSCAASGSIFRYYAMGWYRQAPGKERELVAVITRGGSTYYADSVKGRFTISRDNAKNTVYLQMNSLKPEDTAVYYCAAEDYVIGDSGYDYWGQGTQVTVSS | low polyreactivity |
| QVQLVESGGGLVQEGGSLRLSCAASGSILGRYAMGWYRQAPGKERELVAAITSSGGRTYYADSVKGRFTISRDNAKNTVYLQMNSLKREDTAVYYCNAVSWWYGYDYWGQGTQVSVSS | high polyreactivity |
| QVQLVESGGGLVQEGGSLRLSCAASGSILIVYAMGWYRQATGKERELVAAITRGGRTNYADSVKGRFTISRDNAKNTVYLQMNSLKPEDTAVYYCAARVLPANVKPYNYWGQGTQVTVSS | high polyreactivity |
| QVQLVESGGGLVQEGGSLRLSCAASGSNFKRNTMGWYRQAPGKERELVAAISASGGRTYYADSVKGRFTISRDNAKNTVYLPMNSLKPEDTAVYYCNARFRIGRSELDYWGQGTQVTVSS | low polyreactivity |
| QVQLVESGGGLVQEGGSLRLSCAASGSTFGGYAMGWYRQAPGKERELVAAISGSGVRTYYADSVKGRFTISRDNAKYSVYLQMNSLKPEDTAVYYCAKRVRYPGDRYYYWGQGSQVTVSS | high polyreactivity |
| QVQLVESGGGLVQEGGSLRLSCAASGSTFIDYAMGWYRQAPGKERELVAAITNGGNTKYADSVKGRFTISRDNAKNTVYLQMHSLKPEETAVYYGAREPSIFTPSYDYWGQGTQVTVSS | low polyreactivity |
| QVQLVESGGGLVQEGGSLRLSCAASGSTFSYNAMGWYRQAPGKERELVAAITSGSSTNYADSVKGRFTISRDNAKNTVYLQMNSLKPEDTAVYYCAADGYQDKYYWLETWVGYWGQGTQVTVSS | low polyreactivity |
| QVQLVESGGGLVQEGGSLRLSCAASGSTFVINAMGWYRQAPGKERELVADIDYRGGSTNYSDSVKGRFTISRDNAKNTVYLQMNSLKPEVTAVYYCNKRYVIRRRGYDYWGQGTQVTVSS | low polyreactivity |
| QVQLVESGGGLVQEGGSLRLSCAAYGSTSYRYAMGWYRQAPGKERELVAASSSSGGSTYYADSVKGRFTISRDNEKNTVYLQMNSLKPEDSAVYYCAARFYSGPGGYTMYYWGQGTQVSVSS | high polyreactivity |
| QVQLVESGGGLVQEGGSLRLSCASSGSTFPRYVMGWYRKQTGTESELVAAISSSSGRTFYADSVKGRFTISRDNAKNTVYLQMNSLKPEDTAVYYCAARTSFNVHYWGQGTQVTVSS | high polyreactivity |
| QVQLVESGGGLVQEGGSLRLSCDASGLILLPYARGWYRQAPGKERELVAAISCSGGSTYYADSVKGRFTISRDNAKNTVYLQMNSLKPEVTAVYYCPARPNRQGFYYWGQGTQVTVSS | high polyreactivity |
| QVQLVESGGGLVQEGGSLRLTCAASGRTFTVNAMGWYRQAPGKERELVARISYGGARTYYADSVKGRFTISRDNAKNTVYLQMNSLKPEDTAVYYCAAPGPRKYEYDYWGQGTQVTVSS | high polyreactivity |
| QVQLVESGGGLVQEGGSLRVSCAASGRTFRWYTMGWYRQAPGKEREFVAAITWSGSSTNYADSVKGRFTISRDNAKNTVYLQMNSLKPEDTAVYYCAGEKRRRRDDYWGQGTHVTVSS | high polyreactivity |
| QVQLVESGGGLVQERGSLRLSCAASGRIFGKYAMAWYRLAPGKERELVATISYGGGNTYYADSVKGRFTISRDNAKNTVYLQMNSMKPEDTAVYYCARVPYAYLRYKPFQQYSYDYWGQGTKVTVSS | high polyreactivity |
| QVQLVESGGGLVQEVGSLRLSCAASGSTIYWYAMGWSRQAPGKEMEIVAAISLGSGSTYYADSVKGRFTISRDNAKNTVYLQMNSLKPEDTAVYYCATRGSAWGRSYYYWGQGTQVTVSS | high polyreactivity |
| QVQLVESGGGLVQGGGSLRLRCAASGSILLYYTMGWYRPAPGKERELVAAISWSGVSTYYADSVKGRFTISRDNPMNTVYLQMISLKPVDNEVYYCGTRSVQGSYFAGYCYWGQGPQVTVSS | low polyreactivity |
| QVQLVESGGGLVQGGGSLRLSCAASGRIFGHYVMGSYRQAPGKERELVAAISYSGGSTYYADSVKGRFTISRDNAKNTVYLQMNSLKPEDTAVFYCAARVTQDSPYGAYYYWGQGTQVTVSS | high polyreactivity |
| QVQLVESGGGLVQGGGSLRLSCAASGRIFGVNAMGWYRQAPGKERELVATITSGTSTYYADSVKGRFTIARDNATTTVYLQITSLKPEDTAVYYSATSRVIPWDYDSWGQGTQVTVSS | low polyreactivity |
| QVQLVESGGGLVQGGGSLRLSCAASGRIFTRYTMGWYRPAPGKERELVAASTKRADRTNYADSVKGRFTISRDNAKNTVYLQMNSLKPEDTAVYSCNDAAFSQLRVRYDYWGQGTQVTVSS | low polyreactivity |
| QVQLVESGGGLVQGGGSLRLSCAASGRTFYGYAMGWYRQAPGKERELVAAITRSGGSTYYADSVKGRFTISRDNAKKTVYLQMNILKPVDTAVYYCAAGGQARHDYWGQGTQVTVSS | low polyreactivity |
| QVQLVESGGGLVQGGGSLRLSCAASGSIFSDYAMGWYRQAPGKEREFVAPITWSGTSTYYADSVKGRFTISRYNAKNTVYLQMNSLKPEDTAGDYSAADLLFWLGLVPGTIYDEFDYWGQGTQVTVAS | low polyreactivity |
